Source: patent publication US20120324602A1
Blank lines part the entries; values can stand above or below the substance they belong to.

Columns and labels:
[1] = molecular target: BSH (Arabidopsis thaliana); experiment: TAP-MS, N-terminal GS tag
[2] = molecular target: CHR12 (Arabidopsis thaliana); experiment: TAP-MS, N-terminal GS tag
[3] = molecular target: CKA2 (casein kinase II alpha chain 2) (Arabidopsis thaliana); experiment: TAP-MS, N-terminal GS tag
[4] = molecular target: CRU1 (CRUCIFERINA) (Arabidopsis thaliana); experiment: TAP-MS, N-terminal GS tag
[5] = molecular target: CRU3 (CRUCIFERIN 3) (Arabidopsis thaliana); experiment: TAP-MS, N-terminal GS tag
[6] = molecular target: DNA-binding bromodomain-containing protein (AT1G20670) (Arabidopsis thaliana); experiment: TAP-MS, N-terminal GS tag
[7] = molecular target: DNA-binding bromodomain-containing protein, similar to At1g20670 (AT5G55040) (Arabidopsis thaliana); experiment: TAP-MS, N-terminal GS tag
[8] = molecular target: LFR (armadillo-repeat protein) (Arabidopsis thaliana); experiment: TAP-MS, N-terminal GS tag
[9] = molecular target: RD21 (RESPONSIVE TO …ON 21) (Arabidopsis thaliana); experiment: TAP-MS, N-terminal GS tag
[10] = molecular target: SNF2 protein (BRM) (Arabidopsis thaliana); experiment: TAP-MS, N-terminal GS tag
[11] = molecular target: SWI3A (Arabidopsis thaliana); experiment: TAP-MS, N-terminal GS tag
[12] = molecular target: SWI3B (Arabidopsis thaliana); experiment: TAP-MS, N-terminal GS tag
[13] = molecular target: SWI3D (Arabidopsis thaliana); experiment: TAP-MS, N-terminal GS tag
[14] = molecular target: T1, SWIRM domain-containing protein (SWI3C) (Arabidopsis thaliana); experiment: TAP-MS, N-terminal GS tag
T1 sequence (Q9XI07 1-807, looked up): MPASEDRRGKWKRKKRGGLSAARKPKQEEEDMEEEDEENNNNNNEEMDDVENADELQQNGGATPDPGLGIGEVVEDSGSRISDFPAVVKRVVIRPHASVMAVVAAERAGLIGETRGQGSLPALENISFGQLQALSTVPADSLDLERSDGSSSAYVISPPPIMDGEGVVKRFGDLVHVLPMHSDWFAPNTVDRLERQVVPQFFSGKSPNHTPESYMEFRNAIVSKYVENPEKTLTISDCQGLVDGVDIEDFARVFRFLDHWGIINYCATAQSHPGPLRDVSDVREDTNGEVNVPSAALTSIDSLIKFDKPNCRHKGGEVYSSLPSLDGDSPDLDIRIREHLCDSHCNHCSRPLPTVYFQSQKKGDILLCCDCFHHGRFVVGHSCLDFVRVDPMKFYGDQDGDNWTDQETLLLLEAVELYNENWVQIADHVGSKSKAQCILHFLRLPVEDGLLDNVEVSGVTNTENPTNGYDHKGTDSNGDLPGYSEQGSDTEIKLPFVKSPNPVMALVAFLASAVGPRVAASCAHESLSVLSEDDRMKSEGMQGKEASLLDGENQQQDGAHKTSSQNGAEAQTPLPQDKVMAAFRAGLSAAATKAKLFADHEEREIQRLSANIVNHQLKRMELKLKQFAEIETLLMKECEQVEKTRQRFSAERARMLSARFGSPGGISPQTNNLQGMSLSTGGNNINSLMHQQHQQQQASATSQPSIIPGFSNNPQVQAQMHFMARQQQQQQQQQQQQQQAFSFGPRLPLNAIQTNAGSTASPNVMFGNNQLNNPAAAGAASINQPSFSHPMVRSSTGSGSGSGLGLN

[15] = molecular target: T2, actin-related protein 4 (ARP4) (Arabidopsis thaliana); experiment: TAP-MS, N-terminal GS tag
T2 sequence (Q84M92 1-441, looked up): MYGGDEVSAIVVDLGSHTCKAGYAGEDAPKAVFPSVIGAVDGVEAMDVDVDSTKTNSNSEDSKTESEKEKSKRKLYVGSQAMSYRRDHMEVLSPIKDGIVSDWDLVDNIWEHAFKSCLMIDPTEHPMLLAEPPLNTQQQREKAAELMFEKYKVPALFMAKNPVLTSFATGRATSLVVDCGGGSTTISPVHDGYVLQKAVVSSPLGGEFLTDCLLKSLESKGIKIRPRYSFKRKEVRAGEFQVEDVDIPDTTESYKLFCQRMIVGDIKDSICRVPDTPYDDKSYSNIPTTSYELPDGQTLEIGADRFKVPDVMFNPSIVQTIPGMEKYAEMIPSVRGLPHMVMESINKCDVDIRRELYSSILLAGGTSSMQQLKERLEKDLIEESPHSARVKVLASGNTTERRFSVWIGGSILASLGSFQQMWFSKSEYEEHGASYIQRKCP

[16] = molecular target: T3, actin-related protein 7 (ARP7) (Arabidopsis thaliana); experiment: TAP-MS, N-terminal GS tag
T3 sequence (Q8L4Y5 1-363, looked up): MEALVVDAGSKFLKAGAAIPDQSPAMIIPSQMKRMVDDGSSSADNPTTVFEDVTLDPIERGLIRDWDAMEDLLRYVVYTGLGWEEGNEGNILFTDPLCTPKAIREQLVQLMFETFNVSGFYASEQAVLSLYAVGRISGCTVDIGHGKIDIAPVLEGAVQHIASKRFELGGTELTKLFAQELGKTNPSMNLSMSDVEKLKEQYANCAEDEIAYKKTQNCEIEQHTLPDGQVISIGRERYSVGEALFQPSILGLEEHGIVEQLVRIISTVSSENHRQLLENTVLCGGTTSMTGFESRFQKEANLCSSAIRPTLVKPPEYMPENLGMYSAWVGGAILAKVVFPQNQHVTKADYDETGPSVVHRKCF

[17] = molecular target: electron carrier (AT1G32730) (Arabidopsis thaliana); experiment: TAP-MS, N-terminal GS tag
[18] = molecular target: expressed protein, similar to At3g03460 (AT5G17510) (Arabidopsis thaliana); experiment: TAP-MS, N-terminal GS tag
[19] = molecular target: expressed protein, similar to At4g22320 (AT5G55210) (Arabidopsis thaliana); experiment: TAP-MS, N-terminal GS tag
[20] = molecular target: transcription factor (AT3G18380) (Arabidopsis thaliana); experiment: TAP-MS, N-terminal GS tag
[21] = molecular target: unknown protein (AT1G06500) (Arabidopsis thaliana); experiment: TAP-MS, N-terminal GS tag
[22] = molecular target: unknown, similar to At5g55210 (AT4G22320) (Arabidopsis thaliana); experiment: TAP-MS, N-terminal GS tag
[23] = molecular target: BSH (Arabidopsis thaliana); experiment: TAP-MS, C-terminal GS tag
[24] = molecular target: DNA-binding bromodomain-containing protein (AT1G20670) (Arabidopsis thaliana); experiment: TAP-MS, C-terminal GS tag
[25] = molecular target: DNA-binding bromodomain-containing protein (AT1G58025) (Arabidopsis thaliana); experiment: TAP-MS, C-terminal GS tag
[26] = molecular target: DNA-binding bromodomain-containing protein, similar to At1g20670 (AT5G55040) (Arabidopsis thaliana); experiment: TAP-MS, C-terminal GS tag
[27] = molecular target: LFR (armadillo-repeat protein) (Arabidopsis thaliana); experiment: TAP-MS, C-terminal GS tag
[28] = molecular target: RD21 (RESPONSIVE TO …ON 21) (Arabidopsis thaliana); experiment: TAP-MS, C-terminal GS tag
[29] = molecular target: SNF2 protein (BRM) (Arabidopsis thaliana); experiment: TAP-MS, C-terminal GS tag
[30] = molecular target: SWI3A (Arabidopsis thaliana); experiment: TAP-MS, C-terminal GS tag
[31] = molecular target: SWI3B (Arabidopsis thaliana); experiment: TAP-MS, C-terminal GS tag
[32] = molecular target: SWI3D (Arabidopsis thaliana); experiment: TAP-MS, C-terminal GS tag
[33] = molecular target: T1, SWIRM domain-containing protein (SWI3C) (Arabidopsis thaliana); experiment: TAP-MS, C-terminal GS tag
[34] = molecular target: T2, actin-related protein 4 (ARP4) (Arabidopsis thaliana); experiment: TAP-MS, C-terminal GS tag
[35] = molecular target: T3, actin-related protein 7 (ARP7) (Arabidopsis thaliana); experiment: TAP-MS, C-terminal GS tag
[36] = molecular target: electron carrier (AT1G32730) (Arabidopsis thaliana); experiment: TAP-MS, C-terminal GS tag
[37] = molecular target: expressed protein, similar to At3g03460 (AT5G17510) (Arabidopsis thaliana); experiment: TAP-MS, C-terminal GS tag
[38] = molecular target: expressed protein, similar to At4g22320 (AT5G55210) (Arabidopsis thaliana); experiment: TAP-MS, C-terminal GS tag
[39] = molecular target: isocitrate dehydrogenase (AT5G03290) (Arabidopsis thaliana); experiment: TAP-MS, C-terminal GS tag
[40] = molecular target: unknown protein (AT1G06500) (Arabidopsis thaliana); experiment: TAP-MS, C-terminal GS tag

N-GS (times co-purified) [1]: 2
N-GS (times co-purified) [2]: 1
N-GS (times co-purified) [3]: 1
N-GS (times co-purified) [4]: 1
N-GS (times co-purified) [5]: 1
N-GS (times co-purified) [6]: 3
N-GS (times co-purified) [7]: 1
N-GS (times co-purified) [8]: 2
N-GS (times co-purified) [9]: 2
N-GS (times co-purified) [10]: 2
N-GS (times co-purified) [11]: 3
N-GS (times co-purified) [12]: 2
N-GS (times co-purified) [13]: 3
N-GS (times co-purified) [14]: 3
N-GS (times co-purified) [15]: 2
N-GS (times co-purified) [16]: 2
N-GS (times co-purified) [17]: 2
N-GS (times co-purified) [18]: 2
N-GS (times co-purified) [19]: 2
N-GS (times co-purified) [20]: 2
N-GS (times co-purified) [21]: 2
N-GS (times co-purified) [22]: 1
Substance: GS-Swp73B

C-GS (times co-purified) [23]: 2
C-GS (times co-purified) [24]: 2
C-GS (times co-purified) [25]: 1
C-GS (times co-purified) [26]: 1
C-GS (times co-purified) [27]: 2
C-GS (times co-purified) [28]: 2
C-GS (times co-purified) [29]: 1
C-GS (times co-purified) [30]: 2
C-GS (times co-purified) [31]: 2
C-GS (times co-purified) [32]: 1
C-GS (times co-purified) [33]: 1
C-GS (times co-purified) [34]: 1
C-GS (times co-purified) [35]: 2
C-GS (times co-purified) [36]: 2
C-GS (times co-purified) [37]: 2
C-GS (times co-purified) [38]: 2
C-GS (times co-purified) [39]: 1
C-GS (times co-purified) [40]: 1
Substance: Swp73B-GS
